Experimental data reported in patent publication US20250179208A1 (ZONHON BIOPHARMA INSTITUTE, published 2025).
Like-named read-outs stand apart in the source and are kept apart here. Each block holds one binder with its values, some of them ahead of it.

What was measured:
[1] = molecular target: T1, CD26 on CD26 positive human tumor cells (human, UniProt P27487 1-766); assay: cell-based or functional assay
[2] = molecular target: T2, CD26 protein (recombinant human CD26) (human, UniProt P27487 29-766, limits assumed); assay: BLI (Octet), biotinylated CD26 on SA sensor, antibody 31.3-500 nM
T2 construct: Amine-coupled, biotinylated or HRP-labeled according to the assay; also called DPP4; rCD26
Protocol: CD26 protein was biotinylated with EZ-link NHS-PEG12-Biotin. Biotinylated CD26 protein was immobilized to SA biosensor. Equilibrated in 1×Kinetics solution. The CD26 immobilized to SA biosensor was combined with the antibody solution to be detected. The concentration gradients of the antibody solution were 31.3 nM, 62.5 nM, 125 nM, 250 nM, and 500 nM. The biosensor was dissociated in 1×Kinetics solution. Fortebio Data Analysis 8.0 software was used for data analysis and affinity constant values were calculated.

[3] = molecular target: T1, CD26 on CD26 positive human tumor cells; assay: cell-based or functional assay; remark: listed apart in the source
[4] = molecular target: T1, CD26 on CD26 positive human tumor cells; assay: cell-based or functional assay; remark: listed apart in the source
CD3 protein [5] = molecular target: T3, CD3 protein; assay: BLI (Octet), biotinylated CD3 on SA sensor, antibody 200-1600 nM
T3 chain 1: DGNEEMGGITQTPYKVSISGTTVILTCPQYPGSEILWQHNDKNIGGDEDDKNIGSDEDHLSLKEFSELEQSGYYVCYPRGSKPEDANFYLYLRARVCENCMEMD
T3 chain 2: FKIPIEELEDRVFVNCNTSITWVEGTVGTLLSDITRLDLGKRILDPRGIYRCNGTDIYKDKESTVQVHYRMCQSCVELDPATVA
Protocol: CD3 protein was biotinylated with EZ-link NHS-PEG12-Biotin. Biotinylated CD3 protein was immobilized to SA biosensor. Equilibrated in 1×Kinetics solution. The CD3 immobilized to SA biosensor was combined with the humanized bispecific antibody solution to be detected. The concentration gradient of humanized bispecific antibody was 200 nM, 400 nM, 800 nM, and 1600 nM. The biosensor was dissociated in 1×Kinetics solution. Fortebio Data Analysis 8.0 software was used for data analysis and affinity constant values were calculated.

[6] = molecular target: T1, CD26 on CD26 positive human tumor cells; assay: cell-based or functional assay; remark: listed apart in the source
[7] = molecular target: T2, CD26 protein (recombinant human CD26); assay: BLI (Octet QKe), CD26 amine-coupled on AR2G sensor, antibody at 181.8 nM
Protocol: The affinity of the chimeric antibody to the antigen protein CD26 was detected by Fortebio Intermolecular Interaction Octet QKe instrument. First, the amino-coupled biosensor AR2G was activated with EDC/s-NHS, and the activated biosensor AR2G was solidified in CD26 protein solution diluted with 10 mM sodium acetate (pH 5.0) solution. The biosensor solidified with CD26 was quenched in 1M ethanolamine (pH8.5) solution. Then equilibrated in 1× kinetic solution. After equilibration, it was bound to a humanized bispecific antibody solution. It was dissociated in 1× kinetic solution. Fortebio Data Analysis 8.0 software was used to analyze the data and calculate the affinity constant (KD), association rate constant (kon) and dissociation rate constant (kdis). The Response value represents the number of antibody molecules that can bind to the antigen. Kon indicates the binding speed of the antibody to the corresponding receptor. Kdis represents the dissociation speed of antibody from corresponding receptor. NA indicates no valid data.

CD3 protein [8] = molecular target: T3, CD3 protein; assay: BLI (Octet QKe), CD3 amine-coupled on AR2G sensor, antibody at 181.8 nM
Protocol: The affinity of chimeric antibodies to antigen protein CD3 was determined by Fortebio Intermolecular Interaction Octet QKe instrument. First, the amino-coupled biosensor AR2G was activated with EDC/s-NHS, and the activated biosensor AR2G was solidified in CD3 protein solution diluted with 10 mM sodium acetate (pH 5.0) solution. The biosensor solidified with CD3 was quenched in 1M ethanolamine (pH8.5) solution. Then equilibrated in 1× kinetic solution. After equilibration, it was bound to bispecific antibody solution. They were dissociated in 1×kinetic solution. Fortebio Data Analysis 8.0 software was used to analyze the data and calculate the affinity constant value (KD).

- Kd [2]: 0.914 nM
- koff [2]: 8.45e-05 s⁻¹
- kon [2]: 92400 M⁻¹ s⁻¹
- Kd (CD3 protein [5]): 0.751 nM
- koff (CD3 protein [5]): 0.000178 s⁻¹
- kon (CD3 protein [5]): 238000 M⁻¹ s⁻¹
B1: 19G294 (anti-CD26-CD3 humanized bispecific antibody derived from No. 62 mouse antibody) (bispecific antibody)
chain: DIVMTQSPSSLSVTPGERVSISCRSDKSLLHSNGNTYLYWFLQKPGQSPQVLIYRMSNLASGVPDRFSGSGSGTDFTLTISRVEAEDVGVYYCFQQLEYPYTFGQGTKLEIKGGGGSGGGGSGGGGSEVQLVQSGAELVKPGASVKLSCAASGFNIKDTYIYWVRQAPGQGLEWVGRIEPMNGNTKYDPKFQGRFTMTANTSKNTAYLQLSSLRSEDTAVYYCSRGGWLLLYVMDYWGQGTLVTVSSGGGGSDVQLVQSGAEVKKPGASVKVSCKASGYTFTRYTMHWVRQAPGQGLEWIGYINPSRGYTNYADSVKGRFTITTDKSTSTAYMELSSLRSEDTATYYCARYYDDHYCLDYWGQGTTVTVSSGGGGSGGGGSGGGGSDIVLTQSPATLSLSPGERATLSCRASQSVSYMNWYQQKPGKAPKRWIYDTSKVASGVPARFSGSGSGTDYSLTINSLEAEDAATYYCQQWSSNPLTFGGGTKVEIK
notes: also called 19G294 BiTE
- EC50 of antibody mediated cytotoxicity of PBMC against 786-0-LUC cells (luciferase reporter) [1]: 1.43 ng/mL
- EC50 of antibody mediated cytotoxicity of PBMC against A498-LUC cells (luciferase reporter) [1]: 4.15 ng/mL
- IC50 of antibody mediated PBMC cytotoxicity against 786-0 cells [3]: 0.26 ng/mL
- IC50 of antibody mediated PBMC cytotoxicity against HCC 827 cells [3]: 0.546 ng/mL
- IC50 of antibody mediated PBMC cytotoxicity against NCI-H226 cells [3]: 0.752 ng/mL
- IC50 of antibody mediated PBMC cytotoxicity against NCI-H2052 cells [3]: 5.05 ng/mL
- IC50 of antibody mediated PBMC cytotoxicity against OS-RC-2 cells [3]: 0.545 ng/mL
- IC50 of antibody mediated PBMC cytotoxicity against PC-3 cells [3]: 0.22 ng/mL
- EC50 of antibody mediated cytotoxicity of PBMC against 786-0-LUC cells (luciferase reporter) [4]: 2.62 ng/mL
- EC50 of antibody mediated cytotoxicity of PBMC against A498-LUC cells (luciferase reporter) [4]: 3.21 ng/mL

- Kd [2]: 0.352 nM
- koff [2]: 4.01e-05 s⁻¹
- kon [2]: 114000 M⁻¹ s⁻¹
- Kd (CD3 protein [5]): 0.683 nM
- koff (CD3 protein [5]): 8.71e-05 s⁻¹
- kon (CD3 protein [5]): 128000 M⁻¹ s⁻¹
B3: 21G587 (19G294 anti-CD26 scFv joined to the WBP3311_2.306.4 anti-CD3 scFv) (bispecific antibody)
chain: EVQLVQSGAELVKPGASVKLSCAASGFNIKDTYIYWVRQAPGQGLEWVGRIEPMNGNTKYDPKFQGRFTMTANTSKNTAYLQLSSLRSEDTAVYYCSRGGWLLLYVMDYWGQGTLVTVSSGGGGSGGGGSGGGGSDIVMTQSPSSLSVTPGERVSISCRSDKSLLHSNGNTYLYWFLQKPGQSPQVLIYRMSNLASGVPDRFSGSGSGTDFTLTISRVEAEDVGVYYCFQQLEYPYTFGQGTKLEIKGGGGSQVQLVQSGAEVKKPGSSVKVSCKASGFAFTDYYIHWVRQAPGQGLEWMGWISPGNVNTKYNENFKGRVTITADKSTSTAYMELSSLRSEDTAVYYCARDGYSLYYFDYWGQGTLVTVSSGGGGSGGGGSGGGGSDIVMTQSPDSLAVSLGERATINCKSSQSLLNSRTRKNYLAWYQQKPGQPPKLLIYWASTRQSGVPDRFSGSGSGTDFTLTISSLQAEDVAVYYCTQSHTLRTFGGGTKVEIK
- EC50 of antibody mediated cytotoxicity of PBMC against 786-0-LUC cells (luciferase reporter) [1]: 2.49 ng/mL
- EC50 of antibody mediated cytotoxicity of PBMC against A498-LUC cells (luciferase reporter) [1]: 5.4 ng/mL

More lines, now with the values behind:

B2: No. 62 mouse antibody (antibody, V domains shown)
VH: EVQLQQSGAELVKPGASVKLSCTASGFNIKDTYIYWVKQRPGQGLEWIGRIEPMNGNTKYDPKFQGKATMTANTSSNTAYLHLSSLASEDTAVYFCSRGGWLLLYVMDYWGQGTSVTVSS
VL: DIVMTQAAPSVSVTPGESVSISCRSDKSLLHSNGNTYLYWFLQRPGQSPQVLIYRMSNLASGVPDRFSGSGSGTGFTLRVSRVEAEDVGVYYCFQQLEYPYTFGGGTKLEIKR
- cell lysis rate, antibody mediated PBMC cytotoxic effect on 786-0 cells (100 ng/ml, 5 h) [6]: 53.1%

B4: 17G61 (anti-CD26-CD3 chimeric bispecific antibody derived from No. 62 mouse antibody) (bispecific antibody)
chain: DIVMTQAAPSVSVTPGESVSISCRSDKSLLHSNGNTYLYWFLQRPGQSPQVLIYRMSNLASGVPDRFSGSGSGTGFTLRVSRVEAEDVGVYYCFQQLEYPYTFGGGTKLEIKGGGGSGGGGSGGGGSEVQLQQSGAELVKPGASVKLSCTASGFNIKDTYIYWVKQRPGQGLEWIGRIEPMNGNTKYDPKFQGKATMTANTSSNTAYLHLSSLASEDTAVYFCSRGGWLLLYVMDYWGQGTSVTVSSGGGGSDVQLVQSGAEVKKPGASVKVSCKASGYTFTRYTMHWVRQAPGQGLEWIGYINPSRGYTNYADSVKGRFTITTDKSTSTAYMELSSLRSEDTATYYCARYYDDHYCLDYWGQGTTVTVSSGGGGSGGGGSGGGGSDIVLTQSPATLSLSPGERATLSCRASQSVSYMNWYQQKPGKAPKRWIYDTSKVASGVPARFSGSGSGTDYSLTINSLEAEDAATYYCQQWSSNPLTFGGGTKVEIK
notes: also called chimeric BiTE
- Kd [7]: 17.3 nM
- Response [7]: 0.849
- koff [7]: 0.000331 s⁻¹
- kon [7]: 19100 M⁻¹ s⁻¹
- Kd (CD3 protein [8]): 8.87 nM
- koff (CD3 protein [8]): 0.00159 s⁻¹
- kon (CD3 protein [8]): 179000 M⁻¹ s⁻¹

B5: 17G105 (anti-CD26-CD3 chimeric bispecific antibody derived from No. 72 mouse antibody) (bispecific antibody)
chain: DIVLTQSPASLAVSLGQRATISCRASESVEYYGTSLMQWYQQKPGQPPKLLIYTASNVESGVPVRFSGSGSGTDFSLNIHPVEEDDIAMYFCQQSRKVPYTFGGGTKLEIKGGGGSGGGGSGGGGSQVQLQQSGPELMKPGASVKISCKATGYSFSGFWIEWVKQRPGHGLEWIGEILPGSGASNYHENFKGRATITADTSANTAYMQLRSLTSEDSAVYYCARERYYGSKYFDVWGAGTTVTVSSGGGGSDVQLVQSGAEVKKPGASVKVSCKASGYTFTRYTMHWVRQAPGQGLEWIGYINPSRGYTNYADSVKGRFTITTDKSTSTAYMELSSLRSEDTATYYCARYYDDHYCLDYWGQGTTVTVSSGGGGSGGGGSGGGGSDIVLTQSPATLSLSPGERATLSCRASQSVSYMNWYQQKPGKAPKRWIYDTSKVASGVPARFSGSGSGTDYSLTINSLEAEDAATYYCQQWSSNPLTFGGGTKVEIK
notes: also called chimeric BiTE
- Kd [7]: 39.3 nM
- Response [7]: 0.498
- koff [7]: 0.00126 s⁻¹
- kon [7]: 32000 M⁻¹ s⁻¹
- Kd (CD3 protein [8]): 2.18 nM
- koff (CD3 protein [8]): 0.000672 s⁻¹
- kon (CD3 protein [8]): 309000 M⁻¹ s⁻¹

B6: YS110 (humanized anti-CD26 full-length IgG antibody) (antibody, V domains shown)
VH: EVQLVESGAGVKQPGGTLRLTCTASGFSLTTYGVHWVRQAPGKGLEWVGVIWGDGRTDYDAAFMSRVTISKDTSKSTVYLQMNSLRAEDTAVYYCMRNRHDWFDYWGQGTTVTVSS
VL: DILLTQSPSSLSATPGERATITCRASQGIRNNLNWYQQKPGQAPRLLIYYSSNLQSGVPSRFSGSGSGTDFTLTISRLQPEDVAAYYCQQSIKLPFTFGSGTKVEIK
- cell lysis rate, antibody mediated PBMC cytotoxic effect on 786-0 cells (100 ng/ml, 5 h) [6]: 56.6%
- IC50 of antibody mediated PBMC cytotoxicity against 786-0 cells [3]: > 100 ng/mL
- IC50 of antibody mediated PBMC cytotoxicity against NCI-H226 cells [3]: > 100 ng/mL
- IC50 of antibody mediated PBMC cytotoxicity against OS-RC-2 cells [3]: > 100 ng/mL
- IC50 of antibody mediated PBMC cytotoxicity against PC-3 cells [3]: > 100 ng/mL

B7: No. 212 mouse antibody (antibody, V domains shown)
VH: EVQLQEAGPSLVKPSQTLSLTCFVTGDSITSGYWHWIRKFPGNKLEYMGYINYSGYTYYNPSLKSRFSITRDTSKNQYYLQLNSVTTEDTATYYCTSERNWGAFAYWGQGTLITVSS
VL: ENVLTQSPAIMSASPGEKVTMTCRASSSVISTYLHWYQQKSGASPKLWIYSTSNLASGVPARFSGSGSGTSYSLTISSVEAEDAATYYCQQFSGYPYTFGGGTKLEIK
- cell lysis rate, antibody mediated PBMC cytotoxic effect on 786-0 cells (100 ng/ml, 5 h) [6]: 11.3%
